We go through 167 variants from the RNAGym collection of RNA variant scans (doi:10.7554/elife.90254).

The chains are these.
B1: LINE1-full (parent)
chain: UACGUAGGUGGUUUUCCCCUGAUAGUGCUAAGGGGGCCUGGAAGUUUGGACUGGGCAGAGCUCAACACAGCGUGGCAAAGUGGCUGUGGCUAGACUGCCUCUCUGGAUUCCUCGUCACUCAGCAGGGCAUCUCUGAGAGAAAUGCC

Variants of B1 are the subject of this data set. The experiment in a line: self-cleavage, relative activity (ratio to wild type); higher = more cleavage; in vitro, sequencing; the parent is a self-cleaving ribozyme.
As for U62C A136G, the self-cleavage came to 0.06.
The figure for G60A U73C is 0.02; for G60A U73A it is 0.02.
The value for C61U U115C was 0.02; that for U62A U132C was 0.06.
Consider U62C U108C, for which the self-cleavage came to 0.05.
The value for U62C U108G was 0; that for U62C A79G was 0.06.
The figure for U62C A79U is 0.03.
The figure for C61A C123U is 0.03; for U62A U134C it is 0.05; for U62A U134G it is 0.1.
For the variant U62A U109C, the self-cleavage turned out to be 0.05.
The value for U62A U130C was 0.05.
The value for U62A U112A was 0.05.
In the case of U62A U112C, the self-cleavage is 0.04.
A59G A69U: the self-cleavage was found to be 0.06.
The figure for U62C C103U is 0.03; for C61U A117G it is 0.05; for C63G U130C it is 0.34.
For the variant U62G A138C, the self-cleavage is 0.09.
The value for A59G U143G was 0.03; that for A59G U143C was 0.1; that for C61U U130C was 0.05.
The value for A59G A64C was 0; that for A59G A64U was 0.08.
Consider A59G A64G, for which the self-cleavage turned out to be 0.06.
The figure for C61A A107G is 0.
The figure for U62A A79G is 0.04; for U62G A65U it is 0.16.
The figure for A59G A77U is 0.05.
For A59G A77C, the self-cleavage stood at 0.33.
The value for C61A A124G was 0.04.
The figure for C61U C76U is 0.04; for A59G U134C it is 0.15.
The value for C61A A69U was 0.02; that for A59G C61A was 0.03.
For U62C A77C, the self-cleavage was 0.05.
The figure for U62A U100C is 0.23.
The value for U62A U100A was 0.05.
The figure for A59U U102C is 0.94.
Turning to U62A C116A, the self-cleavage was determined as 0.05.
The figure for G60U A121C is 0.03.
The figure for U62C G126A is 0.04; for U62C C101A it is 0.04.
The figure for U62C C101U is 0.07; for A59U U87A it is 0.07; for U62C C66U it is 0.03.
In the case of C61U A65G, the self-cleavage is 0.06.
Consider A59U U91C, for which the self-cleavage worked out at 0.34.
The value for U62A C133U was 0.04; that for A59G U85C was 0.09.
The figure for A59G U85G is 0.14; for A59G U85A it is 0.04.
The value for C61U A124U was 0.03; that for C61U A124G was 0.04; that for U62A U96C was 0.06.
With U62A U96A, the self-cleavage is 0.04.
Consider A59U C128U, for which the self-cleavage worked out at 1.02.
The figure for A59U C123U is 0.8; for C63U A94G it is 0.06.
The figure for C61U A94G is 0.06; for G60A U143C it is 0.
The figure for A59G U100A is 0.07; for A59G U100C it is 0.16.
Regarding U62A A94G, the self-cleavage came out at 0.04.
The figure for U62C C128A is 0.05; for U62C C63U it is 0.07.
On to U62C C63A, for which the self-cleavage turned out to be 0.01.
The figure for U62C U85C is 0.05.
The figure for U62C U85A is 0.03.
The figure for A59G A117G is 0.18; for A59G A117C it is 0.2; for A59G G60C it is 0.07.
On to U62C A69G, for which the self-cleavage was 0.06.
The figure for G60C U96A is 0.04; for C61U U108C it is 0.01.
For G60A U119A, the self-cleavage was determined as 0.11.
The value for A59G G125C was 0.2; that for C63A U100C was 0.04; that for U62A G127U was 0.02.
The value for A59C A138U was 1.62; that for U62C A141G was 0.03; that for G60A U102C was 0.01.
The figure for U62C A138G is 0.06.
Consider A59G A129U, for which the self-cleavage was found to be 0.19.
The figure for A59G G135A is 0.08; for A59C U102A it is 1.1; for A59C U102C it is 2.07.
The value for C61U U119C was 0.05; that for C63U C90U was 0; that for U62C G97A was 0.03.
The value for G60A A107G was 0.03; that for A59U A78G was 0.68; that for A59U A78U was 1.43.
For the variant A59U U134G, the self-cleavage stood at 1.26.
The value for C63A A77G was 0.04.
U62C A64G: the self-cleavage came out at 0.08.
On to U62C G70A, for which the self-cleavage turned out to be 0.01.
As to C61U U104A, the self-cleavage was determined as 0.02.
The value for A59G U130A was 0.1; that for A59G U130C was 0.17; that for G60A C61G was 0.04.
As for A59G G126U, the self-cleavage is 0.11.
Take A59G U132C: the self-cleavage was determined as 0.11.
The value for U62A U73A was 0.04; that for U62A A121G was 0.06.
The figure for A59U G60A is 0.05; for G60A C113U it is 0.
The figure for G60A C146A is 0.02.
Regarding U62G U115C, the self-cleavage came to 0.
As for A59G G88A, the self-cleavage is 0.06.
The value for U62C C99A was 0.03; that for G60A G127A was 0.03.
The value for A59G C71U was 0.04.
The figure for C63A U108C is 0.08.
Regarding U62A U81G, the self-cleavage came out at 0.02.
The value for C61U A129U was 0.02; that for C61U U134G was 0; that for U62C A140G was 0.04.
The figure for U62G A141G is 0.08; for A59U A77G it is 1.01.
The figure for C63A G97A is 0.01; for A59G A67U it is 0.06; for A59U U104C it is 1.02.
On to C63A U87A, for which the self-cleavage came to 0.04.
The value for C63A U87C was 0.06; that for A59G A94C was 0.29; that for G58U U143C was 0.07.
Regarding U62A A64C, the self-cleavage stood at 0.11.
The value for U62A A64G was 0.05; that for A59U A136U was 0.87.
The value for G60U U104C was 0.04.
For the variant U62G C84G, the self-cleavage came to 0.49.
The figure for U62C G139A is 0.03; for A59G U96C it is 0.04; for A59G U96G it is 0.
The value for G60A U112A was 0.04; that for U62C C131A was 0.03.
The value for U62C G106A was 0.08.
For G60A G105U, the self-cleavage came out at 0.01.
The value for A59G C123U was 0.05.
Consider C63U U96A, for which the self-cleavage turned out to be 0.05.
As to A59U A107G, the self-cleavage was determined as 1.96.
Turning to A59G U81G, the self-cleavage stood at 0.09.
The figure for U62C G105A is 0.03; for U62C A67G it is 0.09; for U62C A67U it is 0.05.
On to U62G G82U, for which the self-cleavage is 0.03.
The value for C63U C128U was 0.23; that for U62A U102C was 0.01.
For the variant U62A U102A, the self-cleavage came out at 0.01.
The value for U62A U102G was 0.08; that for A59C U134A was 1.46; that for G60U A138G was 0.04.
For A59U A94G, the self-cleavage stood at 1.71.
The figure for G60A G139U is 0.03; for C61U U85A it is 0.03.
The value for A59G A92U was 0.1; that for A59G A92C was 0.14; that for C61G U85C was 0.15.
The value for U62C A78U was 0.04.
As for U62C A78C, the self-cleavage worked out at 0.
The value for U62C A78G was 0.05; that for U62C C113U was 0.
As to A59G U115A, the self-cleavage came out at 0.11.
The value for A59G U115C was 0.07.
